Legend:
Assay in all cases: SPR
GGC_5 = target: GGC_5
GGC_13 = target: GGC_13
GGC_6 = target: GGC_6

B1: ghrelin receptor ICL3-specific antibody (antibody, V domains shown)
VH: EVQLQQSGAELVRPGASVKLSCKASGYTFTDYEMHWVKQTPVHGLEWIGAIDPETGGTVYNQKFKGKATLTADISSTTAYMELRSLTSEDSAVYFCISEDIDESKDYWGQGTTLTVSS
VL: DIVMTQSPSSLAVSAGEKVTLSCKSSQSLFNSRTRKNYLAWYQQKPGLSPTLLIYWASTRKSGVPDRFTGSGSGTDFTLTITSVQAEDLAVYYCKQSYYLRTFGGGTKLEIK
Kd (GGC_5): 415 nM | Kd (GGC_13): 406 nM | Kd (GGC_6): 789 nM
